Measured values reported in the nanobody polyreactivity screen of Harvey et al. (2022).

Test: yeast display, Sf9 membrane polyspecificity reagent, FACS + sequencing; frameworks hold sequencing errors
How it was run: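 Galactose induction of a Saccharomyces cerevisiae BJ5465 synthetic nanobody display library ran 36–48 hours. The cells were then stained for 1 hour at 4 °C with 10% biotinylated, detergent-solubilized Sf9 membrane reagent, pulled down on streptavidin microbeads and FACS-sorted into low and high (top ~1%) gates on expression and reagent-binding fluorescence. Labels for polyreactivity follow the gate of origin.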

| Sequence | polyreactivity (PSR sort gate) |
| --- | --- |
| QVQLVESGGGLVQAGGSLRLSCAASGRIFYYNDMGWYRQAPGKERELVAAITWTDDGTYYADSVKGRFTISRDYAKNTVYLQMNSLKPEDTAVYYFAAETFYGFEYWGQGTQVTLSS | low polyreactivity |
| QVQLVESGGGLVQAGGSLRLSCAASGSTINRNAMGWYRQAPGKERELVAGISYGGGSTYADSVKGRFTISRDNAKNTVYLQMNSLKPEDTAVYYCTADFRHGHRHDMNYWGQGTQVTVSS | low polyreactivity |
| QVQLEESGGGLVQAGGSLRLSCAASGLTFVYNTMGMYRQAPGKERELVAAINWSGGRTYYADSVKGRFTISRDNAKNTVYLQMNSLKPEDTAVYYCAALYVPNTPTYKYDYWGQGTQVTVSS | low polyreactivity |
| QVQLVESGGGLVQAGGSRRLSCAASGRTFSKNAMGWYRQAPGKERELVAAISGSGGSTYYADSVKGRFTISRDNAKNSVYLQMNSLKPEDTAVYYCAADGTGFRYLRYDYWGQGTQVTVSS | high polyreactivity |
| QVQLVESGGGLVQAGGSLRLSCAASGLTFPPNAMGWYRQAPGKEREFVAVISSGGGSTYYADSVKGRFTISRDNAKNTVYLQMNSLKPEDTAVYYCNTYYWYSGSPYDYWGQGTQVTVSS | low polyreactivity |
| QVQLVESGGGLVQAGGSLRLSCAASGRILYPYAMGWYRQAPGKERELVAAITFRGGNTYYADSVKGRFTISRDNAKNTVYLQMNSLKPEDTAVYYCAKRGGYWHKFDYWGQGTQVTVSS | high polyreactivity |
| QVQLVESGGGLVQAGGSLRLSCAAYGRIFYYNRMGWYRQAPGKERELVADISFSDGSTYYADSVKGRFTISRDIAKNTVYLQMNSLKPEDTAVYYCAAVIGYDYDYWGQVTQVTVSS | low polyreactivity |
| QVQIVESGGGLVQAGGSLSLICAASGYIFGNYAMGWYRQAPGKESELVADITWRGDSTYADSVKGRFTISRDNSKNTVYLQMNSLKPEDTAVYYCAADIATEYWYTGYDHWGQGTQVTVSS | low polyreactivity |
| QVQLVESGGGLVQAGGSLRLSCAASGRMFFRYAMGCYRQAPGKEREFVATITWSGGRTHYADSVKGRFTISRDNAKNTVYLQMNSLKPEDTAVYYCAASYHRYAFDYWGQGTQVTVSS | high polyreactivity |
| QVQLVESGGGLVQAGGSLRLSCAASGRTFSKYAMGWYRQAPGKERELVAAISKRGDSTYYADSVKGRFTISRDNAKNTVYLQMNSLKPEDTAVYYCARDDYRAYKSYYRYGYWGQGTQVTVSS | low polyreactivity |
| QVQLVESGGGLVQAGGSLRLSCAASGITIYHNAMGWYRPAPGKERELVAAISWSGGSTYYADSVKGRFTISRDNANNTVYLQMNSLKPEDSAVYYCAAYQRVREGHDYEYWGQGTQVSVSS | high polyreactivity |
| QVQLVESGGGLVQAGGSLRLSCAASGITIVWYAMGWYRLAPGKEREFVASISWRGGTTYYADSVKGRFTISRDNAKNTVDLQMNSLKPEDTAVYYCAARTRWWYRYDYWGQGTQVTVSS | high polyreactivity |
| QVQLVESGGGLVQAGGRLRLSCAASGRIFPVYTMGWYRQAPGKERELVAAISGNGASTYYADSVKGRFTISRDNAKNTVYLQMNSLKPEDTAVYYCAAYFYYWGSTFVRYEYWGQGTQVTVSS | high polyreactivity |
| QVQLVESGGGLVQAGGSLRLSCAASGRIFKRYAMGWYRQAPGKERELVASITWSGGSTYYADSVKGRFTISRDNAKNTVYLQMNSLKPEDTAVYYCAARRTATTSRAYYYWGQGTQVTVSS | high polyreactivity |
| QVQLVESGGGLVQAGGSLRLSCAASGSIFFYYAMGWYRPAPGKERELVAAITSGGTTNYADSVNGRFTISRDNAKNTVYLQMNSLKPEDTAVYYCAVAGPRYAFFEYDYWGQGTQVTVSS | low polyreactivity |
| QVHHVESGGGLVQAGGSLRLSCAASGFTLGWYAMGWYRQAPGKERELVAAISSSGGSTYYADSVKGRFTISRDNAKNTVYFQMNSLKPEDTAVYFCAASSAYYRYGYGQFDYWGQGTQVTVSS | high polyreactivity |
| QVQLLESGGGLVQAGGSLRLSCAASGRTFWAYAMGWYRQAPGKERELVAAIDGGDGSTYYADSVKGRFTISRDYAKNTVYLQMNSLKPEDTAVYYCAAETPSGYYPQQYDYYLGQGTQVTVSS | high polyreactivity |
| QVQLVESGGGLVQAGGSLRLSCAASGRIFTRYAMGWYRQAPGKERELVAAISRGGARTYYADSVKGRFTISRDNAKNTVYLQMNSLKPEDTAVYYCARQRVKTDRISGYDYWGQGTQVTVSS | high polyreactivity |
| QVQLVESGGGLVQAGGSLRLSCAASGSTFYPYAMGWYRQAPGKERELVAAISLSDTITYYADSVKGRFTISRDNAKNTVYLQMNSLKPEDTAVYYCAAETPGFVLYEYWGQGTQVTVSS | high polyreactivity |
| QVQLVESGGGLVQAGGSLRLSCAASGRIFVHNSMGWYRQAPGKERELVAAISSCGRTYYADSVKGRFTISRDNAKNTVYFQMNSLKPEDTAVYYCNAGRTNRAGRRWPMDYWGQGTHVTVSS | high polyreactivity |
| QVQLVESGGGLVQAGGSLRLSCAASGSIFKKYAKGWYIQAPGKERELVAAISKSGGSTYYADSVKGRFTISRDNAKTTVYLQMNSLKPEDTAVYYCAAAAGGSAYWDYDYWGQGTQVTVSS | low polyreactivity |
| QVQLVESGGGLVQAGGSLSLSCAASGSTMATYTMGWYRQAPGKERELVAAISFGGSTYYADSVKGRFTISRDNAKNTVYLQMNSLKPEDTAVYYCAVYGDSYWGAYYYSDGYWGQGTQVTVSS | low polyreactivity |

| Sequence | polyreactivity (PSR sort gate) |
| --- | --- |
| QVQLVESGGGLVQAGGSLRLSCAASGRIFGKYAMGWYRQAPGKERELVAAISSSGRTNYADSVKGRFTISRDNAKNTVYLQMNSLKPEDTAVYYCAVRVLIHTNTRRLDYWGQGTQVTVSS | high polyreactivity |
| QVQLVESGGGLVQAGGSLRLSCAASGITFVYYAMGWYRQAPGKERELVASISSGGSTYYADSVKGRFTISRDNAKNTVYLQMNSLKPEDTAVYYCAAPTGWYPAYCEYEYWGQGTQVTVSS | low polyreactivity |
| QVQLVESGGGLVQAGGSLRLSCAASGLIFDPYAMGWYRQAPGKERELVAAITWSGDSTSYADSVKGRFTISRDNAKNTVYLQMNSLKPEDTAVYYCAADGWSRSWGYWVHYGYWGQGTQVTVSS | low polyreactivity |
| QVQLVESGGGLLQAGVSLRLSCASSGRIIDRNAMGWYRQAPGKERELVAAISSSGSTNYADSVKGRFTISRDNAKNTVYLQMNSLKPEDTAVYYCDARWRSVLAAGTRPVSFDYWGQGTQVTVSS | low polyreactivity |
| QVHLVESGGGLVQAGGSLRLSCAASGLIFYFYAKGWYRQAPGKERELVAGITNGGSTNYADSVKGRFTISRDNAKNTVYLQMNSLKPEDTAVYYCAAQYYTVRSTYDYWGQGTQVTVSS | high polyreactivity |
| QVQLVESGGGLVQAGGSLRLSCAASGSIFWWNAMGWYRQAPGKERELVASIGDSTYYADSVKGRFTISRDNAKNTVYLQMNSLKPEDTAVYYCYAEVLNYLVFGYQLGYDYWGQGTQVTVSS | low polyreactivity |
| QVQLVESGGGLVQAGGILRLSCAASGSIVVGYAMGWYRPAPGKERELVGAITGSGTRTDYADSVKGRFTISRDNAKNPVYLHMNSLKPEDTAVYNCAAPMSYKNVKYDYWGQGTQVTVSS | low polyreactivity |
| QVQLVESGGGLVQAGGSLRLSCAASGRTFRYYTMGWYRQAPGKERELVAAINDSGDITYYADSVKGRFTISRDNAKNTVSLQMNSLKPEDTAVYYCAASAAYYGFYKSVTYDYWGQGTQVTVSS | low polyreactivity |
| QVQLVESGGGLVQEGGSLRLSCAASGGTFYNYAMGWYRQAPGKERELVAAITYSGGITYYADSVKGRFTISRDNAKNTVYLQMNRLKPEDTAVYYCAADGYGNYDQYGYWGQGTQVTVSS | low polyreactivity |
| QVQLVESGGGLVQAGGSLRLSCAASGSSFEGYVLGWYRQAPGKERELVATISFSGGSTYYADSVMGRFTISRDNAKNTVYLQMNSLKPVETAVYFSGASVRYKFYSVVSVRSEYWGQGTQVTVST | low polyreactivity |
| QVQHVESGGGLVQAGGSLRLSCAASGLTFPYYVMGWYRQAPGKERELVAAIDDGGGSTYYADSVKGRFTISRDNAKNTVYLQMNSLKPVDTAVYYCAAQVDYLAHYGYWGQGTQVTVSS | low polyreactivity |
| QVQLVESGAGLVQAGGSLRISCAASGSTFDGNDIGWYRQAPGKERELVAAITIGGGSTYYADSVKGRFTISRDNAKNTVYLQMNSLKPEDTAVYYCAKDDHTGVHTYPGDYWGQGTQVTVSS | low polyreactivity |
| QVQLVESGGGLVQAGGSLRLSCAASGIIFLSYAIGWYRQAPGKERELFAAISSGVSTYSADSVKGRFTISRDNAKNPVYFQMNSLKPEDTAVYFCAAYYLWPGYQFRPYDYWGQGTQVTVSS | low polyreactivity |
| QVQLVESGGGLVQAGGSLRLSCAASGITFVWYDMGGYRQAPGKEREFVAVISKRGGSTYYADSVKGRFTISRDNAKNTVYLQMNSLKPEDTAVYYCAASYNLYRRYYYWGQGTQVTVSS | high polyreactivity |
| QVQLVESGGGLVQAGGSLRLSCAASGSIVYRYAMGWYRPAPGKERELVAAISYSGGSTYYADSVKGRFTISRDNAKNTVYLQMNSLKPEDTAVYYCAKDYPPPISDYSRYYGYGYWGQGTQVTVSS | low polyreactivity |
| QVQLVESGGGLVQAGGSLRLSCAASGFTFSPYTMGWYRQAPGKEWELVATIRYDGTSTYYADSVKGRFTISRDNAKNTVFLQMNSLKPEDTEVYYCAADIWRVYSTIYYWGQGTQVTVSS | low polyreactivity |
| QVQLVESGGALVQAGGSLRLSCAASGLTFIAYALGWYRQAPGKERELVASIDSGGGTNYADSVKGRFTISRDNAKNTVYLQMNSLKREDTAVYYCAAESPLYWVDDFESGWRYYYWGQGTHVTVSS | low polyreactivity |
| QVQLVESGGGLVQAGGTLRLSCAASGSIFRYYTMGWYRQAPGKERELVAAITWDGDSTYYADSVKGRFTISLDNAKNTVYLQMNSLKPEDTAVYYCNADDYGPGFDYWGQGTQVTVSS | low polyreactivity |
| QVQLVESGGGLVQAGGSLRLSCAASGRIFALNVMGWYRQAPVKERELFAVINRSGNTNYADSVKGRFTSSRDNAKNTVYLQMNSLKPEDTAVYYCAARRVGYGTDRYYGYDSWGQGTQVTVSS | high polyreactivity |
| QVQLVESGGGLVQAGGSLRLSCAASGSIFDYYAMGWYRQAPGKERELVAAIRRIGGITYYADSVKGRFTISRDNAKNTVYLQMNSLKPEDTAVYYCNVLVKHSTTTYSTYDYWGQGTQVTVSS | high polyreactivity |
| QVQLVESGGGLVQAGGSLRLSCSASGHIFRTYAMGWYRQAPWKERELVAGITPNGDTTYYADSVKGRFTISRDHAKITVYLQMNSLKPEDTAVYYCDAQYSQRPADRYNSWGQGTQVTVSS | low polyreactivity |
